The series is described as follows: yeast display, Sf9 membrane polyspecificity reagent, FACS + sequencing; frameworks hold sequencing errors. In short, it runs like this: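 Genes from sorted yeast were amplified by colony PCR, read by MiSeq 2 × 250 sequencing and filtered on CDR length. These cells carried a synthetic nanobody library in Saccharomyces cerevisiae BJ5465 and were sorted by FACS into low and high (top ~1%) gates on anti-HA and streptavidin fluorescence. Polyreactivity is labelled according to the gate of origin.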
On to “QVQLVESGGCLVQAGGSLRLSCAASGRIFQAYAMGWYRQAPGKERELVAAINRSGNTNYADSVKGRFTISRDNAKNTVYLQMNSLKPEDTAVYYCAADAVSFSYFGYQRMDYWGQGTQVTVSS”, for which the “polyreactivity (PSR sort gate)” value is “low polyreactivity”. On to “QVQLVESGGCLVQAGGSLRLSCAASGRIFQSYAMGWYRQAPGKESELVAAISQSGGSTYYADSVQGRFTISRDNAKNTVYVQMNSLKPEDTAVYYCAARSRWYKRYDYWGQGTQVTVSS”, for which the “polyreactivity (PSR sort gate)” value is “low polyreactivity”. Next, “QVQLVESGGCLVQAGGSLRLSCAASGRIFRDKAMGWYRQAPGKEREFVARITISTGTTYYADSVKGRFTISRDNAKNTGYLQKNSLKPADTAVYYCAALYTDSYLTSPVSYRYDYWGQGTQVSVSS”: “low polyreactivity”; “QVQLVESGGCLVQAGGSLRLSCAASGRIFYRYAMGWSRQAPGKVRELVATISWSGGSTYYAHSVKGRFTISRDNAKYTVYLQLNSLKPEDTAVYYCNAAYGNVSRVYYLIEHDYWGQGTQVTVSS”: “high polyreactivity”. In the case of “QVQLVESGGCLVQAGGSLRLSCAASGRILEYYTMGWYRQAPGKERELVAGITSGGTTNYADSVKGRFTISRDNAKNTVYLQMNSLKPEDTAVYYCALKQSYYFGSYFYGHEYYYWGQGTQVTVSS” it was “low polyreactivity”; in that of “QVQLVESGGCLVQAGGSLRLSCAASGRILLHNAMGWYRQAPGKERELVAAITNGGSTYYADSVKGRFTISRDNAKNTVYLQMNSLKPEDTAVYYCAARTRLAQYSRGRYRYDYWGQGTQVTVSS”, “high polyreactivity”; in that of “QVQLVESGGCLVQAGGSLRLSCAASGRISVFYAMGWYRQAPGKERELVAAITRSGTTKYADSVKGRFTISRDNAKNTVYLQMNSLKPEDTAVYYCAVRRYRARFGYWGKGTQVTVSS”, “high polyreactivity”. Next, “QVQLVESGGCLVQAGGSLRLSCAASGRIYIGYAMGWYRQAPGKERELVAAITTGGRTSYAVSVKGRFTISRDNAKNTVYLQMNSLKPVDTAVYYCAKRKSYNFPTRRPYYRRYYYWGQGTQVTVSS”: “high polyreactivity”; “QVQLVESGGCLVQAGGSLRLSCAASGRTFNYKAMGWYRQAPGKERELVAAINYSGDSTYYADSVKGRFTISRDNAKNTVYLQMNSLQPEDTAVYYCNADDYWYYYRYGYWGQGTQVTVSS”: “low polyreactivity”; “QVQLVESGGCLVQAGGSLRLSCAASGRTFSIYAMGWYRQAPGKEWELVASINGSGGSTYYADSVKGRFTISRDIAMNTVYLQMNSLKPEDTAVYYCAARASPRFNYWGQGSQVTVSS”: “high polyreactivity”. On to “QVQLVESGGCLVQAGGSLRLSCAASGRTFSLYAMGWYRQEPGQERELVASITDSTGGSTYYADSVKGRFTLSRDNAKNTVYLQMNSLKPEDTAVYYCAAQDYQYSDYQWWFGYWGLGTQVTVSS”, for which the “polyreactivity (PSR sort gate)” value is given as “low polyreactivity”. “QVQLVESGGCLVQAGGSLRLSCAASGRTFYGYAMGWYRQAPGKERELVATITSGGSTNYADSVKGRFTISRDNAKNTVYLQMNSLKPEDTAVYYCAATTRLYGRHRRYNYWGQGTQVTVSS”: the “polyreactivity (PSR sort gate)” value is “high polyreactivity”. Next, “QVQLVESGGCLVQAGGSLRLSCAASGRTFYSYAMGWYRQAPGKERELVAAISYTGASTFYADSVKGRFTISRDNAKNTVYLQMNSLKPEDTAVYYCAARKVRFAVDYWGQGTQVTVSS”: “high polyreactivity”; “QVQLVESGGCLVQAGGSLRLSCAASGRTIRVYAMGWYRQAPGKARELVASITRAGGTYADSVKGRFTISRDIAKNPDYLQMNSLKPEDTAVYFCNARWQRSTGGRQRYDYWGQGTQVTVSS”: “high polyreactivity”; “QVQLVESGGCLVQAGGSLRLSCAASGRTYQNNAMGWYRQAPGKERELVAAISRSGASTYYADSVKGRFTISRDNAKNTVYLQMNSLKPEDTAVYYCAARYPRTAYDYWGQGTQVTVSS”: “low polyreactivity”. In the case of “QVQLVESGGCLVQAGGSLRLSCAASGSIFDYNAMGWYRQAPGKEREFVAAISSSAGSTYYADSVKGRFTISRDNAKNTVYLQMNSLKPEDTAVYDCAADWYDFSFPYYEYEYWGQGTQVTVSS” it was “low polyreactivity”; in that of “QVQLVESGGCLVQAGGSLRLSCAASGSIFDYNAMGWYRQAPGKEREFVAAISSSAGSTYYADSVKGRFTISRDNAKNTVYLQMNSLKPEDTAVYYCAADWYDFSFPYYEYEFWGQGTQVTVSS”, “low polyreactivity”; in that of “QVQLVESGGCLVQAGGSLRLSCAASGSIFEYYAMAWSRQAPGKERELVAAINSGDITKYADSVKGRFTISRDNAKNTVYLQMNSLKPEDTAVYYCAKRLSSREYYWGQGSQVTVSS”, “high polyreactivity”.

In the case of “QVQLVESGGCLVQAGGSLRLSCAASGSIFSGNAMGWYRQAPGKERELVAAISRSGGSKYYADSVKGRFTISRDNAKNTVYLQMNSLKPEDTAVYYFAAYRTHGPPRAIRFDYWGQGTQVTVSS”, the “polyreactivity (PSR sort gate)” value is reported as “high polyreactivity”. “QVQLVESGGCLVQAGGSLRLSCAASGSIFSLYAMGWYRQAPGKEWEFVASISRSGGITYYADSVKGRFTISRDNAKNTVYLQMNSLKPEDTAVYYCAAVGWVSYRRYDYWGPGTQVTVSS”: the “polyreactivity (PSR sort gate)” value is recorded as “high polyreactivity”. In the case of “QVQLVESGGCLVQAGGSLRLSCAASGSIFSRNVMGWYRKAPGKERELVAAITGSGGRTYYADSVKGRFTISRDNAKNTVYLQMNSLKPEDTAVYYCAKSRPGTYDYWGPGTQVTVSS” it was “high polyreactivity”. In the case of “QVQLVESGGCLVQAGGSLRLSCAASGSIGTYVMGWYRQAPGKQRELVAAITSNGGRKYYADSVKGRFTISRDNAKNTVYLQMNSLKPEDTAVYYCATVNYSPRYTMYYWGQGTQVTVSS” it was “high polyreactivity”; in that of “QVQLVESGGCLVQAGGSLRLSCAASGSIINYYAMGWFRQAPGKERELVAGITTSGGSTYYADSVKGRFTISRDNAKHTVDLQMNSLKPEDTAVYYCAAYDYSSSTYFLDDYWGQGTQVTVSS”, “low polyreactivity”.

In the case of “QVQLVESGGCLVQAGGSLRLSCAASGSILATNVMGWYRQSPGKESQFVAAISSGGSTNYADSVKGRFTISRDNAKYTVYLQMNSLKPEDTAVYYCATSSIWGSGRVRWVSYYYWGQGSQVTVSS”, the “polyreactivity (PSR sort gate)” value is reported as “low polyreactivity”. Next, “QVQLVESGGCLVQAGGSLRLSCAASGSLFKPYAMGWYIQAPGKEREFVAAINRGGTSTYYADSVKGRFTIARDNAKNTVFLQMKSLKPEDTAVYYCNAESPYYADGDTVRDDYWGQGTQVTVSS”: “low polyreactivity”; “QVQLVESGGCLVQAGGSLRLSCAASGSTFNKYAMGWYRQAPGKERELVAAIRSNGVRTYYADSVKGRFSISRDNAKNTVYLQMNSLKPEDTPVYYCNKRYTYRYDYWGQGTQVCVSS”: “high polyreactivity”; “QVQLVESGGCLVQAGGSLRLSCAASGSTFNYYAMGWYRQAPGKERELVAAISSSGGRTYYADSVKGRFTISRDNAKNTVYLQMNSLKPEDTAVYYCNARTYSYRGYNYWGQGTQVTVSS”: “high polyreactivity”.

For the sequence “QVQLVESGGCLVQAGGSLRLSCAASGSTFPIYAMGWYRQAPGKERELVARITWNGGRTYYADSVKGRFTISRDNAKNTVYLQMNSLKPEDTAVYYCNARRYLRGYGYGYWGQGTQVTVSS”, the “polyreactivity (PSR sort gate)” value is reported as “high polyreactivity”. Next, “QVQLVESGGCLVQAGGSLRLSCAASGSTFRWNSIGSYRQAPVKEREFVASITSGGSTNYADSVKGRYTISRDIAKNTVYLQMNSLKPYDTAVYYCNADVRRSSYYVWLYDYWGQGTQVTVSS”: “low polyreactivity”. Take “QVQLVESGGCLVQAGGSLRLSCAASGSTFYDYDMGWYRQAPGKERELVAAISSSVSTYYADSVKGRFTISRDNAKNTVYFQMNSLKPEDTAVYYCAADYTGVWRYDYWGQGTQVTVSS”: the “polyreactivity (PSR sort gate)” value was “low polyreactivity”.

For the sequence “QVQLVESGGCLVQAGGSLRLSCAASGSTLIEYAMGWYRQAPGKESELVARISKSGDSTYYADSVKGRFTISRDNAKNTVYLQMISLKPEDTAVYYCAKYHRDGFYRSYLRTFDFGYWGQGTQVTVSS”, the “polyreactivity (PSR sort gate)” value is listed as “low polyreactivity”. Next, “QVQLVESGGCLVQAGGSLRLSCAASGSTLRSHAMGWYRQAPGKERELVASISAGGSTSYADSVKGRFTISRDNAKNTVYRQMNSLKPEDTAVYYCAADNSVGSYDYWGQGTEVTVSS”: “low polyreactivity”; “QVQLVESGGCLVQAGGSLRLSCAASGSTLRYYAMGWYRQAPGKERELDARIRSNGGSTYYADSVKGRFTISRDNANNTVYLQMNSLKPEETAVYYCAARTYRGQYYTGFGFGYWGQGSQVTVSS”: “high polyreactivity”. “QVQLVESGGCLVQAGGSLRLSCAASGSTYPVNAMVWSRKEPGKERELDATISWNDDSTDYADSVKGRFTISRDNAKNNVYLQLKSLKPEDTAVYYCAADWHAWGLYTFNSWGQGTLVTVSS”: the “polyreactivity (PSR sort gate)” value is reported as “low polyreactivity”. Next, “QVQLVESGGCLVQAGGSLRLSCAASGYTFVHYDMGWYRQAPGKEREFVAAISGATYYADSVTGRFTISRDNAKNTVYLQMNSLKLEDTAVYYCNAYAYVESPSDMDYWGQGTQVTVSS”: “low polyreactivity”. As for “QVQLVESGGCLVQAGGSLRLSCAASGYTFYVYAMGWYRQAAGKVRELVSAISGGSNTYYADSVKGRFTISRDNAKNTVYLQMNSLKPEDTALYYCAKSSTTYRQRARYDYWGHGTQVTVSS”, the “polyreactivity (PSR sort gate)” value is given as “high polyreactivity”. For “QVQLVESGGCLVQAGGSLRLSCAASGYTLATYAMGWYRQAPGKERELVAAITSTGGTTYYADSVKGRFTISRDNAKNTVYLPMNSLKPEDTAVYYCNAAAALYKRYDYWGQGTQVTVSS”, the “polyreactivity (PSR sort gate)” value is “high polyreactivity”. On to “QVQLVESGGCLVQAGGSLRLSCADSGSTFVIYYMGWYRQAPGKERELVAAISYSGGSTYYADSVKGRFTISRDNAKNTVYLQMNSLKPEDTAVYYGYDYWGQGTQVTVSS”, for which the “polyreactivity (PSR sort gate)” value is reported as “low polyreactivity”. Next, “QVQLVESGGCLVQAGGSLRLSCAPSGYTFGRNAMGWYRQAPGKEWELVATISQRGGSTYYADSVKGRFTISRDNAKNTVYLQLNSLKPEDTAVYYCSAGPIYRYRRYYYWGQGTQVTVSS”: “high polyreactivity”. Next, “QVQLVESGGCLVQAGGSLRLSCASSGITFPGYAMGWYRQAPGKERELVAVIRKSGTSTYYADSVKGRFTISRDNAKNTVDLQMNSLKPEDTAVYYCAAGGPSTLDDYWGQGTQGTVSS”: “low polyreactivity”. In the case of “QVQLVESGGCLVQAGGSLRLSCASSGSTFHSYAMGWYRQAPGKERELVAAISRSGGSTYYADSVKGRFTISRDNAKNTVYLQMNSLKPEDTAVYYCAARDLQFSGYYYWGQGTQVTVSS” it was “high polyreactivity”.

(Values after the nanobody polyreactivity screen of Harvey et al. (2022).)
